From paper PMC2198810

Columns and labels:
[1] = target: actin (African green monkey (endogenous in CV1)); test: pull-down
[2] = target: gelsolin (African green monkey (endogenous in CV1)); test: co-IP

Substance: profilin (natural protein)
- decrease in profilin bound to actin, PIP5KI-overexpressing against β-gal cells [1]: 51%

Substance: gelsolin (natural protein)
- actin:gelsolin staining intensity ratio, PIP5KI-overexpressing cells [1]: 1.25
- actin:gelsolin staining intensity ratio, β-gal cells [1]: 1.91

Substance: actin (natural protein)
- actin:gelsolin 35S intensity ratio, PIP5KI-overexpressing cells [2]: 25.7%
- actin:gelsolin 35S intensity ratio, β-gal cells [2]: 39.4%
